Laboratory results published in patent US20260184748A1 (University of Pennsylvania, published 2026).
Where no end group is shown, it is not given here.

Key:
Experiment in all cases: cell-based or functional assay
TACR3 = molecular target: T1, TACR3 (UniProt P29371 1-465)
T1 sequence (looked up): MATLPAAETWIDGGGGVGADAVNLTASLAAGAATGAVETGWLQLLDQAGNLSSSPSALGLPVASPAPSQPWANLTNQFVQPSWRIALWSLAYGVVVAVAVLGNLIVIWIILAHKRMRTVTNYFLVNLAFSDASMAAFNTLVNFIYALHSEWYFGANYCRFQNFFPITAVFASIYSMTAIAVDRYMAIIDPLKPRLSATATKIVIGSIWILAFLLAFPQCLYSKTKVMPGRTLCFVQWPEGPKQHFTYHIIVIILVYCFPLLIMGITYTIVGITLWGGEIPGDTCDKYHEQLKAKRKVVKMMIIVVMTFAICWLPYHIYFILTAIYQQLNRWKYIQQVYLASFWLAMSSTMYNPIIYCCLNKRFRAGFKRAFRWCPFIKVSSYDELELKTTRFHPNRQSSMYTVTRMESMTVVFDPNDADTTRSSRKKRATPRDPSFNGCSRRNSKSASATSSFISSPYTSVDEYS

EDG5 = EDG5 (UniProt O95136 1-353)
Sequence of EDG5 (O95136 whole entry): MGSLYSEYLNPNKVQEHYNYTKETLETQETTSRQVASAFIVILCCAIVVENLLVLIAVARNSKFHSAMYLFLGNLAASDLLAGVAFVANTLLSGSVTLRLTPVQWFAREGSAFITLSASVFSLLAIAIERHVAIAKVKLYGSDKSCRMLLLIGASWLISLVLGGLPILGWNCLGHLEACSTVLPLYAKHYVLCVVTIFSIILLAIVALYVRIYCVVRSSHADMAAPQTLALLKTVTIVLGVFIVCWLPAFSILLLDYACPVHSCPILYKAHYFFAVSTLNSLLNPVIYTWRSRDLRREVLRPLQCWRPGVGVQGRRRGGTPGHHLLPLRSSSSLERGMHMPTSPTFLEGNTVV

PTGIR = PTGIR (UniProt P43119 1-386, limits assumed)
Sequence of PTGIR (P43119 whole entry): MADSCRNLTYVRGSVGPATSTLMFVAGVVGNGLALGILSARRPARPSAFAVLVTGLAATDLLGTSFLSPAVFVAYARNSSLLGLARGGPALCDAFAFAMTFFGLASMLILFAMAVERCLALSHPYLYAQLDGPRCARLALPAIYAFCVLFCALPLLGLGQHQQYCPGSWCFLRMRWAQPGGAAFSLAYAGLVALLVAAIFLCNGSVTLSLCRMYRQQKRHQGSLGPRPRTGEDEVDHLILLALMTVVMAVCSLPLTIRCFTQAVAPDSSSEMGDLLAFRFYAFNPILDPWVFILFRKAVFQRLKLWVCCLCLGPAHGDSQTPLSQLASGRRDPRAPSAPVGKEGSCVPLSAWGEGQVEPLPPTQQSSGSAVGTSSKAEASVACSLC

GLP1R = GLP1R (UniProt P43220 24-463)
Sequence of GLP1R (P43220 24-463 limits assumed): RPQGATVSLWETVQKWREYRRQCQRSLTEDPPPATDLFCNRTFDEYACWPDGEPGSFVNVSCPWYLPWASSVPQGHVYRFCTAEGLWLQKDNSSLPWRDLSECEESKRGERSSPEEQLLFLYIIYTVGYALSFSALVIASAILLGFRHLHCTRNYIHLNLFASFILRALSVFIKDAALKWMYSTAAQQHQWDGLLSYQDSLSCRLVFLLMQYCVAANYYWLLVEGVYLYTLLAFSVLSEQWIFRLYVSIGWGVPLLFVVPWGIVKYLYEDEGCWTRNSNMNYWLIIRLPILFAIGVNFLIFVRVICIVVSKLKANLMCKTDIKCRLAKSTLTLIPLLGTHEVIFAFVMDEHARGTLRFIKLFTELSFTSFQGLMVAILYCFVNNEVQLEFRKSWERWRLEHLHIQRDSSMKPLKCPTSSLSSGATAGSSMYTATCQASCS

HRH4 = HRH4 (UniProt Q9H3N8 1-390)
Sequence of HRH4 (Q9H3N8 whole entry): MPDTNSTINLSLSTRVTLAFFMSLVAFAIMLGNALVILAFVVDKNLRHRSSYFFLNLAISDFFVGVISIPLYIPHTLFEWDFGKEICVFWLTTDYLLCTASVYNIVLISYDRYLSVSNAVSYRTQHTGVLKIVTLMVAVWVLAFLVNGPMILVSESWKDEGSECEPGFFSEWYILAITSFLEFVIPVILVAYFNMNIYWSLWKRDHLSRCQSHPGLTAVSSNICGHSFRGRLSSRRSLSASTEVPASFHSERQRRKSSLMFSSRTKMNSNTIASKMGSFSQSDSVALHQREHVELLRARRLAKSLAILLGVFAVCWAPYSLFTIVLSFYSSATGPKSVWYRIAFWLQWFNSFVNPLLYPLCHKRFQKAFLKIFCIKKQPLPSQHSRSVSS

C5aR1 = molecular target: T2, C5aR1 (UniProt P21730 1-350)
T2 sequence (looked up): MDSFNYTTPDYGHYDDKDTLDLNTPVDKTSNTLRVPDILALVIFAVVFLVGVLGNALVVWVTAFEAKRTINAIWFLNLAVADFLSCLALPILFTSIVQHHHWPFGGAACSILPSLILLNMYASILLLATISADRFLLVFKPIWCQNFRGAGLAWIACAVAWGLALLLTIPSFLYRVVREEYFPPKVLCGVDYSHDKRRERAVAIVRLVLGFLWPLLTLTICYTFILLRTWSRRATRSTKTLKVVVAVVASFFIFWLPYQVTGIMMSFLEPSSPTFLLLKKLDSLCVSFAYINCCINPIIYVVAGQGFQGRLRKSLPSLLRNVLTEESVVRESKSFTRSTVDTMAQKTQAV

DRD5 = DRD5 (UniProt P21918 1-477)
Sequence of DRD5 (P21918 whole entry): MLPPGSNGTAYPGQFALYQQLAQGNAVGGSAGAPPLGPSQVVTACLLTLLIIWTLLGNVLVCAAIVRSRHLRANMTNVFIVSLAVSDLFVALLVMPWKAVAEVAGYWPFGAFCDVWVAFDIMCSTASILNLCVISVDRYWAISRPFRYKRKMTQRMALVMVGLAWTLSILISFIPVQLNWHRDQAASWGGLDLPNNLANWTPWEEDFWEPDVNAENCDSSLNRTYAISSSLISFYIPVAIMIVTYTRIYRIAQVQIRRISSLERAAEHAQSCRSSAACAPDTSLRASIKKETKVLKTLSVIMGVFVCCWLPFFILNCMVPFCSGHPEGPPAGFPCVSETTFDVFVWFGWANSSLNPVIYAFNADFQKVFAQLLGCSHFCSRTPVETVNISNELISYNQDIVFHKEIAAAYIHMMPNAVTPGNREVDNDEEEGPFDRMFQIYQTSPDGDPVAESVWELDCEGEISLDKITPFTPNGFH

GPR92 = GPR92 (UniProt Q9H1C0 1-372)
Sequence of GPR92 (Q9H1C0 whole entry): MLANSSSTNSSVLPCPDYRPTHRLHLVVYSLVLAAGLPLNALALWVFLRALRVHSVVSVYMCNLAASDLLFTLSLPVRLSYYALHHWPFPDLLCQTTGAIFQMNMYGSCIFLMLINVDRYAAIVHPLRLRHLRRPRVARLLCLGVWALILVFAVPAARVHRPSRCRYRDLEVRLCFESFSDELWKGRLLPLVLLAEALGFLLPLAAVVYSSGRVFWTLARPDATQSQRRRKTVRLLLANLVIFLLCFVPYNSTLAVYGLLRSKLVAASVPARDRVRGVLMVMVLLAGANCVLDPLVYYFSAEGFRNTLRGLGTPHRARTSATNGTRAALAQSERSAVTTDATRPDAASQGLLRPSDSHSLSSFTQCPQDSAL

CRTH2 = molecular target: T3, CRTH2 (UniProt Q9Y5Y4 1-395)
T3 sequence (looked up): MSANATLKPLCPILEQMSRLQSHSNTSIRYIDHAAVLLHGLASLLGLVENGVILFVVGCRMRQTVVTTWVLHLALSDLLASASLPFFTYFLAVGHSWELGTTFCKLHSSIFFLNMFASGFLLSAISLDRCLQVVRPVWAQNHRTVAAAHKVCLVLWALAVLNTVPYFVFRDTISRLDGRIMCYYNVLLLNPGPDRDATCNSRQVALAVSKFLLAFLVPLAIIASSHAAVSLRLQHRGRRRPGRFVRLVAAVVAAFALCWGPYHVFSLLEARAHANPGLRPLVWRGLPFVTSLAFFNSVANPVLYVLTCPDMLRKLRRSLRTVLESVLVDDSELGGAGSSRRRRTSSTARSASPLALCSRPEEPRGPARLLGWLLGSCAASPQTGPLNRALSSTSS

CXCR1 = molecular target: T4, CXCR1 (UniProt P25024 1-350)
T4 sequence (looked up): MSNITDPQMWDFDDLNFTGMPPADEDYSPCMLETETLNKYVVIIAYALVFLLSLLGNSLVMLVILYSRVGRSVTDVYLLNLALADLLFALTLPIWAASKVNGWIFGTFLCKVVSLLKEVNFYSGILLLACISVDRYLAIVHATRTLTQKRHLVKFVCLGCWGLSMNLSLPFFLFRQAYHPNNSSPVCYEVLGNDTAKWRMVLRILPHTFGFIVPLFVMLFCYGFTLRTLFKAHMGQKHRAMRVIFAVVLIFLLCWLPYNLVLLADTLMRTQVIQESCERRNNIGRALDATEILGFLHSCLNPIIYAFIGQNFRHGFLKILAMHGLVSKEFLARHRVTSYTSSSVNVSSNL

NTSR1 = NTSR1 (UniProt P30989 1-418)
Sequence of NTSR1 (P30989 whole entry): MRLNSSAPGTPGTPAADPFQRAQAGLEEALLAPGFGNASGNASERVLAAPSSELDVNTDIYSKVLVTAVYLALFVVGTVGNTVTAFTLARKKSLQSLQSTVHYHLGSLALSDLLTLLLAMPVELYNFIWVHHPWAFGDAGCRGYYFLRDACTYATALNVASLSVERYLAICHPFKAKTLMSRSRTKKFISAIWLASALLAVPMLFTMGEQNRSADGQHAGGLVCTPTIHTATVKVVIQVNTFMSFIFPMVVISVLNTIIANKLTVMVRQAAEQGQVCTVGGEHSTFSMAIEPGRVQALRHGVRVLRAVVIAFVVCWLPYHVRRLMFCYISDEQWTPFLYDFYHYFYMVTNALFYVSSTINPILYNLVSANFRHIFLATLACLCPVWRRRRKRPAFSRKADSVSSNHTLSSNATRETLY

TRHR = molecular target: T5, TRHR (UniProt P34981 1-398)
T5 sequence (looked up): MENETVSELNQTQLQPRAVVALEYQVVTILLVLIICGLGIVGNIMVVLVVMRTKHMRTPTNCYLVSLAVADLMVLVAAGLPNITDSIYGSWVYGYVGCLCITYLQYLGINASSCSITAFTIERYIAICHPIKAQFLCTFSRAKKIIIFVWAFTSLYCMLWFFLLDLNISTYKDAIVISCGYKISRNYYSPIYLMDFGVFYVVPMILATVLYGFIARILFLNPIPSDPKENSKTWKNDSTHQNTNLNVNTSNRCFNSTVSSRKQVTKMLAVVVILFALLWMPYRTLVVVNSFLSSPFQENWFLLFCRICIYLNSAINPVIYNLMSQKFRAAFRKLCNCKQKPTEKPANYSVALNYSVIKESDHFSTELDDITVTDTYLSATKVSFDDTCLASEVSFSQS

EDG4 = EDG4 (UniProt Q9HBW0 1-348)
Sequence of EDG4 (Q9HBW0 whole entry): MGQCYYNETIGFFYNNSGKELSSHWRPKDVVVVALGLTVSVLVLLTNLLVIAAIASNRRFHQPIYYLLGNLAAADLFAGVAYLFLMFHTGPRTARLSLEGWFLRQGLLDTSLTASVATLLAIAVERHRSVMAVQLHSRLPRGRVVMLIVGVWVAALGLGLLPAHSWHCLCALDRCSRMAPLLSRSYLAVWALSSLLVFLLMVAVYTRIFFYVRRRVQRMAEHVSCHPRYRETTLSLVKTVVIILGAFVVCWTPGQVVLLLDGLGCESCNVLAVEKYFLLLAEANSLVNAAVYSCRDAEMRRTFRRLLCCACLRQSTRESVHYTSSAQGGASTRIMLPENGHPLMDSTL

GPR103 = molecular target: T6, GPR103 (UniProt Q96P65 1-431)
T6 sequence (looked up): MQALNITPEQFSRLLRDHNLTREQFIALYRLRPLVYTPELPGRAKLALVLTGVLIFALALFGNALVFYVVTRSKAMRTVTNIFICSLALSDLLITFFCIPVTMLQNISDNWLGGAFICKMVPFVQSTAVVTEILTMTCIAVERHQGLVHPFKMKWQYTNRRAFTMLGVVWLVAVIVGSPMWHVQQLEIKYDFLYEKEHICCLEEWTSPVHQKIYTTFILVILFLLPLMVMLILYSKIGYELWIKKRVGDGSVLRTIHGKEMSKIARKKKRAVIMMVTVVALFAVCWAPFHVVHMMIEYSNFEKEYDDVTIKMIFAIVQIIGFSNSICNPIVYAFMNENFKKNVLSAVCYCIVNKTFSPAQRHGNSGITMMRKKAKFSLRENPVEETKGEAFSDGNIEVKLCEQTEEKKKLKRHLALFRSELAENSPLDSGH

QATVGDVNTDRPGLLDLK (also: synthesised on Rink amide resin, C-terminal amide not given here outright) [octadecaneuropeptide (ODN)]
% Activity, arrestin, antagonist mode, 2.5 uM (TACR3): -5.8% | % Activity, arrestin, antagonist mode, 2.5 uM (EDG5): -11.2% | % Activity, arrestin, antagonist mode, 2.5 uM (PTGIR): -20% | % Activity, arrestin, antagonist mode, 2.5 uM (GLP1R): -11% | % Activity, arrestin, antagonist mode, 2.5 uM (HRH4): 5.2% | % Activity, arrestin, antagonist mode, 2.5 uM (C5aR1): -14.2% | % Activity, arrestin, antagonist mode, 2.5 uM (DRD5): 4.2% | % Activity, arrestin, antagonist mode, 2.5 uM (GPR92): 10.6% | % Activity, arrestin, antagonist mode, 2.5 uM (CRTH2): 0.6% | % Activity, arrestin, antagonist mode, 2.5 uM (CXCR1): 10.2% | % Activity, arrestin, antagonist mode, 2.5 uM (NTSR1): -21.4% | % Activity, arrestin, antagonist mode, 2.5 uM (TRHR): -6.6% | % Activity, arrestin, antagonist mode, 2.5 uM (EDG4): 4.6% | % Activity, arrestin, antagonist mode, 2.5 uM (GPR103): 14.6%
